In patent US20180021429A1, “ANTICANCER AGENTS OR ANTIMETASTATIC AGENTS USING FSTL1 AND COMBINATION DRUG THEREOF” (PHARMA FOODS INTERNATIONAL CO., LTD., priority 2015, published 2018):
“Also recorded” adds a separate entry of the source.

Molecular target: T1, FSTL1 (Homo sapiens, UniProt Q12841)
T1 sequence (Q12841 21-308): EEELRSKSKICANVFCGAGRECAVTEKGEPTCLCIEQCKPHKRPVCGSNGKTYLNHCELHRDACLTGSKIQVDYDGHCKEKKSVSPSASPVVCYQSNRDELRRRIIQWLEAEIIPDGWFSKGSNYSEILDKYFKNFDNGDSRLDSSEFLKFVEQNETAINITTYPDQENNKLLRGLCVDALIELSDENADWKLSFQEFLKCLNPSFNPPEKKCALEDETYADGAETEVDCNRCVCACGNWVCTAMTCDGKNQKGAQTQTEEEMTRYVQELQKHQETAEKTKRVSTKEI
Assay: Inhibition of induction of MSCs, cancer-associated MSCs and M-MDSCs by FSTL1 in mouse bone marrow cells (Examples 13 to 15)
Type: cell-based
Parameters: purchased R&D Systems, Inc. 1694-FN-050
Experimental: The antibody clone (#6-55, #7, […], #13, or #22) was evaluated for its activity by the same testing method as in Example 13. #6-55 was set as a positive control for activity. […] Mouse bone marrow cells were supplemented with FSTL1 and the predetermined concentration of each antibody and cultured for 8 days. 5×10^4 cells/well were separated from each culture system and evaluated for the ability to differentiate into adipocytes using an adipocyte differentiation reagent included in “Mesenchymal Stem Cell Functional Identification Kit (R&D Systems, Inc., Cat. No. SCO10)”. For the evaluation method, the cells were supplemented with the adipocyte differentiation reagent and cultured for 8 days. Then, adipocytes per culture system were counted under a microscope for evaluation. In the graph, none is depicted in the leftmost bar, and the control antibody is depicted in the second bar from the left followed by the anti-FSLT1 antibody clones. Adipocytes were not confirmed for any of the anti-FSLT1 antibodies. It is understood that the differentiation induction of MSCs serving as the original source is inhibited.
Mouse bone marrow cells (bone marrow cells prepared in the same way as in Example 4) were supplemented with 20 ng/mL (final concentration) of FSTL1 and 20.0, 10.0, 5.0, or 2.5 μg/ml (final concentration) of the rat anti-FSTL1 antibody or #6-55. Also, mouse bone marrow cells were supplemented with 20.0 μg/ml (final concentration) each of their respective control antibodies, a rat IgG2b isotype control (R&D Systems, Inc., Cat. No. MAB0061, clone 141945) and an anti-DNP antibody. The cells were cultured for 8 days, and the inhibitory activity of each antibody against the induction of MSCs, cancer-associated MSCs, and M-MDSCs by FSTL1 was evaluated in the same way as in Example 13 (FIG. 40A). […] The inhibition of regulatory T cells shown in Patent Literature 1 (WO2009/028411) is presumably a consequence mediated by the inhibition of MSC induction. […]

[1] = Example 14, #6-55 as positive control

B1: #13: chicken-mouse chimeric anti-FSTL1 antibody clone; variable regions SEQ ID NO: 815 (light), 817 (heavy) (antibody, V domains shown)
VH: AVTLDESGGGLQTPGGGLSLVCKASGFTFSSVTMQWVRQAPGKGLEWVASICSGSSTYYGPAVKGRATISRDNGQNTVRLQLNNLRAEDTATYYCAKIVGRGRWSCTSAAYNIDAWGHGTEVIVSS
VL: ASTQPSSVSANPGETVKITCSGGGNNYGWYQQKSPGSAPVTVIYNNNNRPSNIPSRFSGSKSGSTNTLTITGVQAEDEAVYYCGSYDSSSDSGIFGAGTTLTVL
modifications: mouse constant regions
[1]
  inhibitory activity against the induction of MSCs, cancer-associated MSCs, and M-MDSCs by FSTL1: inhibitory activity equivalent to or higher than that of the positive control

B2: #33: chicken-mouse chimeric anti-FSTL1 antibody clone; variable regions SEQ ID NO: 823 (light), 825 (heavy) (antibody, V domains shown)
VH: AVTLDESGGGLQTPGGGLSLVCKASGFTFSSFNMNWVRQAPGKGLEYVAEISGTGSSTYYGSAVKGRATISRDNGQSTVRLQLNNLRAEDTATYFCARGDGAYSIDAWGHGTEVIVSS
VL: ASTQPSSVSANPGETVEITCSGDSSYYGWFQQKSPGSAPVTVIYDNTNRPSDIPSRFSGSKSGSTATLTITGVRAEDEAVYYCGGYDSSTYDGIFGAGTTLTVL
modifications: mouse constant regions
[1]
  inhibitory activity against the induction of MSCs, cancer-associated MSCs, and M-MDSCs by FSTL1: inhibitory activity equivalent to or higher than that of the positive control

B3: #6-55: chicken-mouse chimeric anti-FSTL1 antibody clone; variable regions SEQ ID NO: 783 (light), 785 (heavy) (antibody, V domains shown)
VH: AVTLDESGGGLQTPGGALSLVCKGSGFTFTSVTMQWVRQAPGKGLEWVASVCSGSSTYYAPAVKGRATISRDNGQSTVRLQLSNLRPEDTGTYYCAKIAGRARWSCTSAAYNIDAWGHGTEVIVSS
VL: ASTQPSSVSAIPGETVKITCSGGGNNYGWYQQRSPGSAPVTVIYYNDNRPSNIPSRFSGSTSGSTSTLTITGVQADDEAIYYCGSWDSNTDSGIFGAGTTLTVL
modifications: mouse constant regions
Example 15, FSTL1 20 ng/mL, antibody 20.0, 10.0, 5.0, or 2.5 μg/ml, dose dependence not confirmed
  inhibitory activity against the induction of MSCs, cancer-associated MSCs, and M-MDSCs by FSTL1: at the same level; also recorded: slightly superior
